Data: patent US20190055314A1 (ADAGENE, published 2019)

What was measured:
[1] = target: T1, human CD137-His6 (Sino Biological #10041-H08H) (human, UniProt Q07011 24-186); assay: SPR Biacore, IgG
T1 construct: Bought; also called human CD137 protein; not shown: His6 tag

[2] = target: T2, mouse CD137 protein (Biacore) (mouse, UniProt P20334 24-178, limits assumed); assay: SPR Biacore
T2 construct: Construct used as SPR analyte not described
T2 sequence: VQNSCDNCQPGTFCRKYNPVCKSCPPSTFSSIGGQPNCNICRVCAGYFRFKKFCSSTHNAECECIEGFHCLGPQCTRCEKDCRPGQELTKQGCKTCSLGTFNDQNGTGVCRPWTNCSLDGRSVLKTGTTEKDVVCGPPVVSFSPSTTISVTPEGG

[3] = target: T3, mouse CD137 fused with human FC fragment (mouse, UniProt P20334 24-178, limits assumed); assay: ELISA, coated CD137-Fc
T3 construct: also called mouse CD137-Fc; not shown: human Fc fragment
T3 sequence: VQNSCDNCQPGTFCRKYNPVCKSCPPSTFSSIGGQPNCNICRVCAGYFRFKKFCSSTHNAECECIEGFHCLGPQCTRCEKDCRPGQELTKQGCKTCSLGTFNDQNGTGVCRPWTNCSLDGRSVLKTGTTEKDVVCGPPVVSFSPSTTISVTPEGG

[4] = target: T4, full-length mouse CD137 on the cell surface (mouse, UniProt P20334 24-178); assay: flow cytometry, yeast display [Cont.]
T4 sequence: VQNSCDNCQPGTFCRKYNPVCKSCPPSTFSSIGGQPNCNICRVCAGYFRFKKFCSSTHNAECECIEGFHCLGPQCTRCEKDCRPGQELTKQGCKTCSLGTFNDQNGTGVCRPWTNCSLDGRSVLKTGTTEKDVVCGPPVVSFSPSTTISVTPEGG

Hu_CRD3 = target: T5, Hu_CRD3 (human, limits assumed); assay: flow cytometry, yeast display [Cont.]
T5 construct: also called human CD137 CRD3
T5 chain: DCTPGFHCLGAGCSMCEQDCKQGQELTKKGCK

[5] = target: T6, rat CD137 on the cell surface (rat, UniProt Q4W8J3 24-258); assay: flow cytometry, HEK293F cells expressing CD137
T6 sequence: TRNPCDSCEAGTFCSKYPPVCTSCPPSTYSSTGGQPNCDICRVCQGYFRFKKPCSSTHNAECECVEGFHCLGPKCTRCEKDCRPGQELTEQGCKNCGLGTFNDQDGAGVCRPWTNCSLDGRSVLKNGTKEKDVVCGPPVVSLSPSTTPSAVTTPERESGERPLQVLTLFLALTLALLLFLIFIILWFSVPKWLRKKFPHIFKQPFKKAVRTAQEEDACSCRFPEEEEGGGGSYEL

[6] = target: T4, full-length mouse CD137 on the cell …; assay: flow cytometry, HEK293F cells expressing CD137 or mutant

Binder | Kd [1] [nM] | koff [1] [s⁻¹] | kon [1] [M⁻¹ s⁻¹] | other results
AC1097 (antibody, V domains shown) VH: EVQLVQSGAEVKKPGESLRISCKGSGYSFSTYWISWVRQMPGKGLEWMGKIYPGDSYTNYSPSFQGQVTISADKSISTAYLQWSSLKASDTAMYYCARGYGIFDYWGQGTLVTVSS VL: SYELTQPPSVSVSPGQTASITCSGDNIGDQYAHWYQQKPGQSPVLVIYQDKNRPSGIPERFSGSNSGNTATLTISGTQAMDEADYYCATYTGFGSLAVFGGGTKLTVL |  |  |  | binding result [2]: no binding; binding result [3]: no binding; % in upper right quadrant [4]: 0.59%; Mean [4]: 16200; % in upper right quadrant (Hu_CRD3): 0.22%; Mean (Hu_CRD3): 12700; binding result [5]: no binding (tested: 100 nM (text paragraph 220)); % in upper right quadrant [6]: 0.005%
AG10085 (antibody, human IgG4 S228P, kappa, V domains shown, also called IgG of Fab 5367) VH: EVQLVESGGGLVQPGGSLRLSCAASGFSLSTSGVGVGWIRQAPGKGLEWVSGISGAGDSTYYADSVKGRFTISRDNSKNTLYLQLNSLRAEDTAVYYCAREGSDTVLGDWFAYWGQGTLVTVSS VL: DIQLTQSPSSLSASVGDRVTITCRASQDIRSYLAWYQQKPGKAPKLLIYDASNRATGIPSRFSGSGSGTDFTLTISSLQPEDFATYYCQQGYSIWTFGQGTKVEIKR | 54 | 0.0079 | 150000 | 
AG10129 (antibody, human IgG4 S228P, kappa, V domains shown, also called IgG of Fab 5353) VH: EVQLVESGGGLVQPGGSLRLSCAASGFTFSSYWIHWVRQAPGKGLEWVSVISGDGDTTYYADSVKGRFTISRDNSKNTLYLQLNSLRAEDTAVYYCARSRGLVLDAFDYWGQGTLVTVSS VL: DIQLTQSPSSLSASVGDRVTITCRASQSVSGRFLAWYQQKPGKAPKLLIYDASSLESGVPSRFSGSGSGTDFTLTISSLQPEDFATYYCQQYDYWPPYTFGQGTKVEIKR | 19 | 0.006 | 310000 | 
AG10082 (antibody, human IgG4 S228P, kappa, V domains shown, also called IgG of Fab 5300) VH: EVQLVESGGGLVQPGGSLRLSCAASGYTFSNYWIHWVRQAPGKGLEWVSYISGDGDTTYYADSVKGRFTISRDNSKNTLYLQLNSLRAEDTAVYYCAREGSTTVAGDWFAYWGQGTLVTVSS VL: DIQLTQSPSSLSASVGDRVTITCRASQGIGSFLGWYQQKPGKAPKLLIYDASSLESGVPSRFSGSGSGTDFTLTISSLQPEDFATYYCQQYYSLVTFGQGTKVEIKR | 13 | 0.0072 | 560000 | 
AG10083 (antibody, human IgG4 S228P, kappa, V domains shown, also called IgG of Fab 5323) VH: EVQLVESGGGLVQPGGSLRLSCAASGFSLSTSGVGVGWIRQAPGKGLEWIGEIYHSGSTYYSPSLKSRVTISRDNSKNTLYLQLNSLKAEDTAVYYCAREGSDVVTGDWFAYWGQGTLVTVSS VL: DIQLTQSPSSLSASVGDRVTITCRASQGISSVLAWYQQKPGKAPKLLIYDASSLESGVPSRFSGSGSGTDFTLTISSLQPEDFATYYCQQGYSLWTFGQGTKVEIKR | 12 | 0.0069 | 570000 | 

More lines, in order of falling Kd [1], values ahead:

Kd [1] [nM] | koff [1] [s⁻¹] | kon [1] [M⁻¹ s⁻¹] | Binder | other results
10 | 0.012 | 1.2e+06 | AG10080 (antibody, human IgG4 S228P, kappa, V domains shown, also called IgG of Fab 4217) VH: EVQLVESGGGLVQPGGSLRLSCAASGYSISSGYYWDWIRQAPGKGLEWVSSISGDGDTTYYADSVKGRFTISRDNSKNTLYLQLNSLRAEDTAVYYCAREYYGYGYALDYWGQGTLVTVSS VL: DIQLTQSPSSLSASVGDRVTITCRASQGISSYLAWYQQKPGKAPKLLIYDASSLESGVPSRFSGSGSGTDFTLTISSLQPEDFATYYCQQYYSTPLTFGQGTKVEIKR | 
6.9 | 0.0017 | 240000 | AG10081 (antibody, human IgG4 S228P, kappa, V domains shown, also called IgG of Fab 5299) VH: EVQLVESGGGLVQPGGSLRLSCAASGYSISSGHYWGWIRQAPGKGLEWLALIDWYGDKYYSTSLKSRLTISRDNSKNTLYLQLNSLRAEDTAVYYCARSDYYGSHFDYWGQGTLVTVSS VL: DIQLTQSPSSLSASVGDRVTITCRASESVDFDGFSFLAWYQQKPGKAPKLLIYDASNLETGVPSRFSGSGSGTDFTLTISSLQPEDFATYYCQQYDTLPRTFGQGTKVEIKR | 
6 | 0.003 | 500000 | AG10124 (antibody, human IgG4 S228P, kappa, V domains shown, also called IgG of Fab 5302) VH: EVQLVESGGGLVQPGGSLRLSCAASGFSLSTGGVGVAWIRQAPGKGLEWVSSISGYGSTTYYADSVKGRFTISRDNSKNTLYLQLNSLRAEDTAVYYCAREGSDAVLGDWFGYWGQGTLVTVSS VL: DIQLTQSPSSLSASVGDRVTITCQASQDITTYLAWYQQKPGKAPKLLIYDASNRATGIPSRFSGSGSGTDFTLTISSLQPEDFATYYCQQGYYLWTFGQGTKVEIKR | 
1.4 | 0.00027 | 190000 | AG10079 (antibody, human IgG4 S228P, kappa, V domains shown, also called IgG of Fab 4074) VH: EVQLVESGGGLVQPGGSLRLSCAASGFSLSTGGVGVSWIRQAPGKGLEWVSSISGSGGTTYYADSVKGRFTISRDNSKNTLYLQLNSLRAEDTAVYYCARDDLYSWYFDVWGQGTLVTVSS VL: DIQLTQSPSSLSASVGDRVTITCRASQGIGSSLAWYQQKPGKAPKLLIYAASSLQSGVPSRFSGSGSGTDFTLTISSLQPEDFATYYCQQGYYTWTFGQGTKVEIKR | 
